Data reported in US5821227A, “Modulators of cytokines of the tgf β superfamily” (Mount Sinai Hospital Corporation, priority 1995, dated 1998).
Read-outs that look alike come from different tables or passages of the source.

Assays:
TGF-β1 [1] = target: T1, TGF-β1 (Homo sapiens, UniProt P01137); assay: BIAcore surface plasmon resonance binding to immobilized TGF-β1; conditions: for binding to immobilized TGF-β1 (in words): BIAcore sensorgram
T1 construct: purchased Collaborative Research (Bedford, Mass.)
T1 sequence (P01137 279-390 limits assumed): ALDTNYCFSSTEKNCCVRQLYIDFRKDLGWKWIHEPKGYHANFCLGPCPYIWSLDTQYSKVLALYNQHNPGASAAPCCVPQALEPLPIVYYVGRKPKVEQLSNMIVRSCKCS
Experimental: (§1) In this system, a purified protein serving as the ligand is covalently coupled to a carboxymethylated dextran surface, and binding molecules (ie. the analyte) are passed in a fluid phase across the surface. Binding of the analyte to ligand causes a change in reflected light which is directly proportional to mass bound, and is measured in arbitrary response units (R.U.). Analyte-ligand binding is observed as both increasing response with time during the injection of analyte, and the difference in the position of the baseline before and after injection.
(§2) Schuster, R. V. Swanson, L. A. Alex, R. B. Bourret, M. I. Simon, Nature 365, 343 (1993). 1000 R.U. equals approximately 1 ng/mm^2. The running buffer was 20 mM Hepes (pH7.2), 150 mM NaCl and the flow rate for all sensorgrams was 3 μl/min. Injection volumes were 36 μl for FIG. 2, 4 and 5 and 45 μl for FIG. 3. […] Protein concentrations in each experiment were (FIGS. 2 and 3), 2, 5, 10, 20, 30, 40 μM; (FIG. 4), 0.21, 0.31, 0.41, 0.62, 0.82, 1.24 μM; (FIG. 5), 0.22, 0.29, 0.44, 0.59, 0.88 μM. R.U. for the immobilized cytokine in each experiment was 2850 R.U. for FIGS. 2 and 3; 7450 R.U. for FIG. 4, and 5300 R.U., for FIG. 5 respectively.
(§3) Data was analyzed using the BIA-evaluation software (Pharmacia Biosensor). The association rate constant, kass, was calculated by first plotting the change in response with time versus response (ie. dR/dT vs R). When the slope of the line from this graph is plotted versus analyte concentration (i.e d(dR/dT)/dR vs C), kass is obtained from the slope of the line. The dissociation rate constant, kdiss, is obtained during the decrease in response with time after analyte injection is discontinued. Specifically, kdiss was obtained from the slope of the line in a plot of ln(Rt1 /Rtn) vs time. The affinity constants were calculated from KD =kdiss /kass. Variance for kass is standard error of the linear regression plot, and for kdiss values are the mean±range of 3 or more independent injections.

BMP-2 = target: T2, BMP-2 (Homo sapiens, UniProt P12643); assay: BIAcore surface plasmon resonance binding to immobilized BMP-2; conditions: for Kd: ligand BMP-2, KD = kdiss/kass; for kdiss / kass: ligand BMP-2 immobilized; for kass: ± standard error of linear regression
T2 construct: purchased Genetics Institute, Cambridge, Mass; (a gift, not bought)
T2 sequence (P12643 283-396): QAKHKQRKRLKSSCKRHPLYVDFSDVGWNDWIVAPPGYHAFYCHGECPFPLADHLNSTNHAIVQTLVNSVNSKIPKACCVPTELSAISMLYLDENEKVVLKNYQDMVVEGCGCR
Experimental: as §1, §2, §3

TGF-β2 = target: T3, TGF-β2 (Homo sapiens, UniProt P61812); assay: BIAcore surface plasmon resonance binding to TGF-β2; conditions: ligand TGF-β2; for Kd: KD = kdiss/kass; for kass: ± standard error of linear regression
T3 sequence (P61812 303-414 limits assumed): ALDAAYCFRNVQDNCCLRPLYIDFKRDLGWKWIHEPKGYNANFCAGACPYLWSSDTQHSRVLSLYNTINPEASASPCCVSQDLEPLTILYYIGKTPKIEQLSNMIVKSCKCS
Experimental: as §1, §2, §3

BMP-4 = target: T4, BMP-4 (Homo sapiens, UniProt P12644); assay: BIAcore surface plasmon resonance binding to immobilized BMP-4; conditions: ligand BMP-4; for Kd: KD = kdiss/kass
T4 sequence (P12644 293-408): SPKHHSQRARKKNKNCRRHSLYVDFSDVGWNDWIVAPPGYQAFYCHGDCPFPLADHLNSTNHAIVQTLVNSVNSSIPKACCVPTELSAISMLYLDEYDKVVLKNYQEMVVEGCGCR
Experimental: as §1, §2, §3

TGF-β1 [2] = target: T1, TGF-β1; assay: Mv1Lu growth inhibition assay: neutralization of the antiproliferative activity of TGF-β1 (3H-thymidine incorporation); format: cell-based; conditions: Mv1Lu cells; for IC50 / Maximal effect, percent neutralization: TGF-β1 12 pM; for IC50: 3H-thymidine incorporation, read-out: half-maximal inhibition (IC50) of the anti-proliferative activity of TGF-β1; for Maximal effect, percent neutralization: 0% = TGF-β1 alone, 100% = no additions
Experimental: Mv1Lu cells were seeded at 20,000 cells/well in a 96 well plate containing 0.2% FCS in α-MEM and incubated with the indicated concentrations of proteins for 18 hr. […] Before use, bovine thyroglobulin was spun twice in a centricon (M.W. cutoff of 10,000 Da) micro-concentrator (Amicon, Beverly, Mass.) to remove any excess Iodine and T3/T4 thyroid hormones.

BMP-6 = target: T5, BMP-6 (Homo sapiens, UniProt P22004); assay: BIAcore surface plasmon resonance binding to immobilized BMP-6; conditions: ligand BMP-6
T5 sequence (P22004 375-513): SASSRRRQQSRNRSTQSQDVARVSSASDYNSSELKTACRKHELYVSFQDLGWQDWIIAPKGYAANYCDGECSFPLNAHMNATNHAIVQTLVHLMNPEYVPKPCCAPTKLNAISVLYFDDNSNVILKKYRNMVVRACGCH
Experimental: as §1, §2, §3

[3] = ± standard error of linear regression
[4] = ligand TGF-β1, KD = kdiss/kass, read-out: KD
[5] = ligand TGF-β1 immobilized, ± standard error of linear regression

binding to immobilized TGF-β1 (in words) (TGF-β1 [1])	kdiss (TGF-β2) [s⁻¹]	Kd (TGF-β2) [µM]	kass (TGF-β2) [M⁻¹ s⁻¹]	kdiss (BMP-4) [s⁻¹]	Kd (BMP-4) [µM]	Kd (TGF-β1 [1]; [4]) [µM]	kdiss (dissociation rate) (TGF-β1 [1]; ligand TGF-β1 immobilized) [s⁻¹]	kass (association rate) (TGF-β1 [1]; [5]) [M⁻¹ s⁻¹]	Kd (BMP-2) [µM]	kdiss (BMP-2) [s⁻¹]	kass (BMP-2) [M⁻¹ s⁻¹]	IC50 (TGF-β1 [2]) [µM]	Maximal effect, percent neutralization (TGF-β1 [2])	Compound	further results
	0.005	3.8	1300 ± 600	0.0011	0.02	0.68	0.0019	2800 ± 1000	0.0031	0.0001	32000 ± 2000	0.22	approximately 150%	Thyroglobulin: Bovine thyroglobulin purchased from Sigma, containing the TRH1 domain	kass (BMP-4; [3]): 54000 ± 7000 M⁻¹ s⁻¹; IC50 for inhibition of TGF-β1 activity, fold lower than for fetuin (TGF-β1 [2]): 20 fold
						> 10								CC[C@H](C)[C@H](NC(=O)[C@H](CC(N)=O)NC(=O)[C@H](CCC(=O)O)NC(=O)[C@H](CC(=O)O)NC(=O)[C@H](CC(N)=O)NC(=O)[C@H](CCCCN)NC(=O)[C@H](CCCNC(=N)N)NC(=O)[C@H](Cc1c[nH]c2ccccc12)NC(=O)[C@@H](NC(=O)[C@H](C)NC(=O)[C@@H](NC(=O)[C@@H](N)CSCC(N)=O)C(C)C)C(C)C)C(=O)N[C@H](C(=O)N[C@@H](CC(C)C)C(=O)N[C@@H](CCC(=O)O)C(=O)N[C@H](C(=O)N[C@H](C(=O)N[C@@H](CSCC(N)=O)C(=O)N[C@@H](Cc1c[nH]cn1)C(=O)N[C@@H](CC(=O)O)C(=O)O)C(C)C)[C@@H](C)O)[C@@H](C)O [TRH1b (TβRII) (reduced & alkylated)]	

The remaining lines, values behind:

Compound	binding to immobilized TGF-β1 (in words) (TGF-β1 [1])	kdiss (TGF-β2) [s⁻¹]	Kd (TGF-β2) [µM]	kass (TGF-β2) [M⁻¹ s⁻¹]	kdiss (BMP-4) [s⁻¹]	Kd (BMP-4) [µM]	Kd (TGF-β1 [1]; [4]) [µM]	kdiss (dissociation rate) (TGF-β1 [1]; ligand TGF-β1 immobilized) [s⁻¹]	kass (association rate) (TGF-β1 [1]; [5]) [M⁻¹ s⁻¹]	Kd (BMP-2) [µM]	kdiss (BMP-2) [s⁻¹]	kass (BMP-2) [M⁻¹ s⁻¹]	IC50 (TGF-β1 [2]) [µM]	Maximal effect, percent neutralization (TGF-β1 [2])	further results
CC[C@H](C)[C@@H]1NC(=O)[C@H](CC(N)=O)NC(=O)[C@H](CCC(=O)O)NC(=O)[C@H](CC(=O)O)NC(=O)[C@H](CC(N)=O)NC(=O)[C@H](CCCCN)NC(=O)[C@H](CCCNC(=N)N)NC(=O)[C@H](Cc2c[nH]c3ccccc23)NC(=O)[C@H](C(C)C)NC(=O)[C@H](C)NC(=O)[C@H](C(C)C)NC(=O)[C@@H](N)CSSC[C@@H](C(=O)N[C@@H](Cc2c[nH]cn2)C(=O)N[C@@H](CC(=O)O)C(=O)O)NC(=O)[C@H](C(C)C)NC(=O)[C@H]([C@@H](C)O)NC(=O)[C@H](CCC(=O)O)NC(=O)[C@H](CC(C)C)NC(=O)[C@H]([C@@H](C)O)NC1=O [TRH1b (TβRII)]															koff (TGF-β1 [1]; ligand TGF-β1 immobilized, read-out: kdiss (dissociation rate)): 0.0019 s⁻¹; kon (TGF-β1 [1]; ligand TGF-β1 immobilized, ± standard error of linear regression, read-out: kass (association rate)): 3700 M⁻¹ s⁻¹
reduced and alkylated fetuin: Fetuin, reduced and alkylated, compared to native fetuin	diminished binding														binding to immobilized BMP-2 (in words) (BMP-2; BIAcore sensorgram): diminished binding
Fetuin: Bovine fetuin, glycoprotein from fetal calf serum (ammonium sulfate fractionation, gel filtration), purchased from Sigma		0.0032	5.8	550 ± 120	0.00058	0.14		0.0016	670 ± 400	0.036	6.2e-05	1700 ± 300	4.2	approximately 150%	Kd (TGF-β1 [1]; ligand TGF-β1, steady-state, read-out: KD, Scatchard type analysis for steady-state binding): 4.6 µM; kdiss (BMP-2; listed as fetuin): 6.2e-05 s⁻¹; kass (BMP-2; listed as fetuin): 1700 M⁻¹ s⁻¹; kdiss (BMP-6): 0.0025 s⁻¹; Kd (BMP-6; KD = kdiss/kass): 0.86 µM; kass (BMP-6; [3]): 2900 ± 500 M⁻¹ s⁻¹
human transferrin: Non-binding control passed over immobilized TGF-β1 [reference compound]	non-binding														
